Assay results taken from FireProtDB (doi:10.1021/bi00072a011).
Values joined by “and” are separate entries in the source; they are usually repeats but may differ in a detail not shown here. Equal values may be shown once.

Conditions: Salmonella typhimurium (strain LT2 / SGSC1412 / ATCC 700720); pH 7.8; 25 °C; Urea; CD; Potassium phosphate 10 mM; transition: 3; whole UniProt chain shown

B1: Tryptophan synthase alpha chain wild type, P00929 (protein)
chain: MERYENLFAQLNDRREGAFVPFVTLGDPGIEQSLKIIDTLIDAGADALELGVPFSDPLADGPTIQNANLRAFAAGVTPAQCFEMLALIREKHPTIPIGLLMYANLVFNNGIDAFYARCEQVGVDSVLVADVPVEESAPFRQAALRHNIAPIFICPPNADDDLLRQVASYGRGYTYLLSRSGVTGAENRGALPLHHLIEKLKEYHAAPALQGFGISSPEQVSAAVRAGAAGAISGSAIVKIIEKNLASPKQMLAELRSFVSAMKAASRA
denaturant m value: 2.7 kcal/mol/M and 1.6 kcal/mol/M
denaturant midpoint (higher = more stable): 2.75 M and 3.63 M
unfolding free energy: 7.4 kcal/mol and 5.8 kcal/mol
